Measurements as given in patent publication US9975943B2, “Polypeptides” (AFFIBODY AB, priority 2013, dated 2018).

Tests used:
human FcRn = human FcRn (Homo sapiens, UniProt P55899); assay: Biacore analysis of Z variants fused to PP013-Z03638; format: binding; design: made in house; host or cells: human SKOV-3 cells, lentivirally transduced, secreted; purified on immobilized human IgG; details: pH 6.0; 40, 160 and 640 nM
Procedure: Expressed and purified Z variants fused to PP013-Z03638 were assayed against human FcRn at pH 6.0 essentially as described for the kinetic analysis in Example 3. The Z variants and the negative control Z03638-PP013 were injected at 40 nM, 160 nM and 640 nM during 1 minute followed by dissociation for 2.5 minutes and equilibration for 1 minute. Kinetic constants and affinities were determined for the Z variants using the BiaEvaluation software.

[1] = Pharmacokinetic study in mice; format: in vivo, mouse; details: male NMRI mice; i.v. 92 nmol/kg; serum; Z variants as fusions to PP013-Z03638
Procedure: Z11947, Z11946 and Z11948 fused to PP013-Z03638 were administered intravenously (i.v.) to male NMRI mice (Charles River, Germany) at a dose of 92 nmol/kg body weight. Sera from groups of three mice were obtained at 0.08, 6, 18, 78, 120, 168 and 240 hours. The concentration of respective Z variant was determined by ELISA.
Half-area 96-well ELISA plates were coated at 4° C. overnight with 50 μl/well of an Z specific goat antibody (produced in-house) diluted to 4 μg/ml in coating buffer (50 mM sodium carbonate, pH 9.6). The antibody solution was poured off and the wells were blocked with 100 μl of PBSC for 1.5 h at RT. The sera were diluted in PBSC plus 1% mouse serum (matrix) from 1:100 to 1:51,200 in a two-fold dilution series in a dilutions plate. […] Bound Z variants were detected with 50 μl/well of rabbit anti-PP013 Ig (produced in-house) diluted to 4 μg/ml in PBSC. […] After 15 minutes of development, the absorbance was measured at 450 nm using a multi-well plate reader (Victor^3). The absorbance values were analyzed using GraphPad Prism 5 to determine the concentrations (cubic-spline curve fit) and area under curve (AUC). […] The resulting curves followed a two compartment model and the terminal half-life was calculated as In2 divided by the slope based on the last three time points.

binding to FcRn (human FcRn): negative against FcRn
Substance: Z03638-PP013: negative control molecule [Z03638]-GAP(G4S)4TS-[PP013]; Taq polymerase binding Z variant fused to albumin binding polypeptide
terminal half-life [1]: approximately 43 hours
